Consider two molecules from publication PMC4735607, “Reversal of axonal growth defects in an extraocular fibrosis model by engineering the kinesin–microtubule interface” (Nature Communications, 2016).

The term Kd denotes the constant that tells how readily two partners part at equilibrium.

Conditions in all cases: both partners purified
Experiment [1] deals with T1, WT microtubules of recombinant human TUBA1B (K40R, treated as WT) and TUBB3 tubulin (human, UniProt P68363-1 1-451; Q13509-1 1-450, K40R).
T1 construct: beta3-tubulin TUBB3, Homo sapiens, NP_006077; Polymer of alpha/beta heterodimers, taxol-stabilised; Each tag is joined through a GGSGG linker; also called WT MT; WT MTs; source: HighFive insect cells (baculovirus), purified (DEAE Sepharose, TALON, anti-FLAG resin), polymerized with taxol
T1 sequence (P68363 whole entry K40R, chain 1 of 2): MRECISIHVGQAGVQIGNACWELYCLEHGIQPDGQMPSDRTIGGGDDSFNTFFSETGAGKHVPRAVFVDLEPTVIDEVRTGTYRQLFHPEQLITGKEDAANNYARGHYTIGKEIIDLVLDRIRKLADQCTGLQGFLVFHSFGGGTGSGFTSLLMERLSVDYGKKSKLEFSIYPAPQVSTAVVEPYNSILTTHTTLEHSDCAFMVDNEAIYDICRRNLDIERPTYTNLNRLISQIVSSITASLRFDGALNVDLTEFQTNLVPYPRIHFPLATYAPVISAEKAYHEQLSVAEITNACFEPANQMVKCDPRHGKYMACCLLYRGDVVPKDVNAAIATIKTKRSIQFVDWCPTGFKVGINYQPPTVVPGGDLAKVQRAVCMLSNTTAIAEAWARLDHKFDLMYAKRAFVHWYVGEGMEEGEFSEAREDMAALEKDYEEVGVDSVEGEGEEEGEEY
T1 sequence (Q13509 whole entry, chain 2 of 2): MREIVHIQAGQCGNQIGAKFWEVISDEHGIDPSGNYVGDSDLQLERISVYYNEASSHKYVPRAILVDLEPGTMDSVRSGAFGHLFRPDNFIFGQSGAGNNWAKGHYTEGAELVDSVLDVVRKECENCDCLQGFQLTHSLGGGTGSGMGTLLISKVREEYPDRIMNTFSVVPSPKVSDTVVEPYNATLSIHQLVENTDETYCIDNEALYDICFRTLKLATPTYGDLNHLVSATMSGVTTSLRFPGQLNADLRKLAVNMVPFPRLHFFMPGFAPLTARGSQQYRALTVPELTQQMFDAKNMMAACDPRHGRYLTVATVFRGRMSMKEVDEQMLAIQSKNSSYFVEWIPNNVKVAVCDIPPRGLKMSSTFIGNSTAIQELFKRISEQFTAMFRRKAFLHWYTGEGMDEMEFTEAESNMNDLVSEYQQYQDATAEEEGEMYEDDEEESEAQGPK
Put plainly: co-sedimentation; nucleotide-free state: 0.1 µM BG-549-labelled HK349 with varying concentrations of MTs; x2 MA buffer, 1 mg/ml casein, 40 µM taxol, 1 U/ml apyrase; fraction of HK349 in the MT pellet against total MT concentration fitted to a hyperbola.

In experiment [2] the target is T2, beta-R262A microtubules of recombinant human TUBA1B (K40R) and TUBB3 R262A tubulin (human, UniProt P68363-1 1-451; Q13509-1 1-450, K40R | R262A).
T2 construct: beta3-tubulin TUBB3, Homo sapiens, NP_006077, with R262A; Polymer of alpha/beta heterodimers, taxol-stabilised; Each tag is joined through a GGSGG linker; also called β-R262A; R262A MT; source: HighFive insect cells (baculovirus), purified (DEAE Sepharose, TALON, anti-FLAG resin), polymerized with taxol
T2 sequence (P68363 whole entry K40R, chain 1 of 2): as the sequence (P68363 whole entry K40R, chain 1 of 2) above
T2 sequence (Q13509 whole entry R262A, chain 2 of 2): as the sequence (Q13509 whole entry, chain 2 of 2) above, with R262A counted along it
The experiment is described as above.

Experiment [3] addresses T1, WT microtubules of recombinant human …. The experiment is described as follows: co-sedimentation; ADP state: 0.1 µM BG-549-labelled HK349 with varying concentrations of MTs; x2 MA buffer, 1 mg/ml casein, 40 µM taxol, 1 mM ADP and 1 U/ml hexokinase; fraction of HK349 in the MT pellet against total MT concentration fitted to a hyperbola.
Experiment [4] deals with T2, beta-R262A microtubules of recombinant …. Described as above.
For experiment [5], the target named is T1, WT microtubules of recombinant human …. The experiment is described as follows: co-sedimentation; AMPPNP state: 0.1 µM BG-549-labelled HK349 with varying concentrations of MTs; x2 MA buffer, 1 mg/ml casein, 40 µM taxol, 1 mM AMPPNP and 1 U/ml apyrase; fraction of HK349 in the MT pellet against total MT concentration fitted to a hyperbola.
Experiment [6] has as its target T2, beta-R262A microtubules of recombinant …. The experiment is described as above.

B1: WT KIF5B, single-headed (monomeric) construct HK349 (K349-SNAP-His) (domain or fragment, human, UniProt P33176 1-349, looked up)
chain: MADLAECNIKVMCRFRPLNESEVNRGDKYIAKFQGEDTVVIASKPYAFDRVFQSSTSQEQVYNDCAKKIVKDVLEGYNGTIFAYGQTSSGKTHTMEGKLHDPEGMGIIPRIVQDIFNYIYSMDENLEFHIKVSYFEIYLDKIRDLLDVSKTNLSVHEDKNRVPYVKGCTERFVCSPDEVMDTIDEGKSNRHVAVTNMNEHSSRSHSIFLINVKQENTQTEQKLSGKLYLVDLAGSEKVSKTGAEGAVLDEAKNINKSLSALGNVISALAEGSTYVPYRDSKMTRILQDSLGGNCRTTIVICCSPSSYNESETKSTLLFGQRAKTIKNTVCVNVELTAEQWKKKYEKEKE
modifications: fluorescent dye BG-549 (SNAP-surface 549) on the SNAP tag
notes: kinesin heavy chain KIF5B, human, residues 1-349; also called minimal motor; not shown: SNAP tag, C-terminal, kept
B1: the dissociation constant Kd in experiment [1] was 12 nM; in experiment [2], 860 nM; in experiment [3] it was 6500 nM; in experiment [4], 36000 nM; in experiment [5], 29 nM; in experiment [6], 2500 nM.

B2: D279R KIF5B, single-headed (monomeric) construct HK349 (domain or fragment, human, UniProt P33176 1-349, looked up)
chain: MADLAECNIKVMCRFRPLNESEVNRGDKYIAKFQGEDTVVIASKPYAFDRVFQSSTSQEQVYNDCAKKIVKDVLEGYNGTIFAYGQTSSGKTHTMEGKLHDPEGMGIIPRIVQDIFNYIYSMDENLEFHIKVSYFEIYLDKIRDLLDVSKTNLSVHEDKNRVPYVKGCTERFVCSPDEVMDTIDEGKSNRHVAVTNMNEHSSRSHSIFLINVKQENTQTEQKLSGKLYLVDLAGSEKVSKTGAEGAVLDEAKNINKSLSALGNVISALAEGSTYVPYRRSKMTRILQDSLGGNCRTTIVICCSPSSYNESETKSTLLFGQRAKTIKNTVCVNVELTAEQWKKKYEKEKE
modifications: fluorescent dye BG-549 (SNAP-surface 549) on the SNAP tag
notes: kinesin heavy chain KIF5B, human, residues 1-349, with D279R in the L12 loop; also called HK349 D279R; not shown: SNAP tag, C-terminal, kept
As for B2, the Kd in experiment [1] amounted to 12 nM; in experiment [2], 120 nM; in experiment [3], 12000 nM; in experiment [4] it was 14000 nM; in experiment [5], 10 nM; in experiment [6], 50 nM.
